Numbered stars: 1 amine (or outer) side, 2 acyl side, 3 side chain; on linkers, the order of the positions; unused ones are H or OH. Bridge positions count the residues as written; N and C are the ends. Side chains are listed from the residue outwards. Ends that are not written are not given here. * marks the point of attachment. C20 diacid = O=C(O)CCCCCCCCCCCCCCCCCCC(=O)*; γGlu = O=C(O)[C@H](CCC(=O)[*:2])N[*:1]; AEEA = NCCOCCOCC(=O)O

In test [1] the target is T1, rat amylin receptor (rat calcitonin receptor + rat RAMP 3) (rat, UniProt P32214 25-516; Q9JJ73 23-147).
T1 construct: whole, on cells; Membranes prepared from transiently transfected BHK tk'ts 13 cells (Assay VI); also called rAmylin-R; rAmylin
T1 sequence (looked up) 1: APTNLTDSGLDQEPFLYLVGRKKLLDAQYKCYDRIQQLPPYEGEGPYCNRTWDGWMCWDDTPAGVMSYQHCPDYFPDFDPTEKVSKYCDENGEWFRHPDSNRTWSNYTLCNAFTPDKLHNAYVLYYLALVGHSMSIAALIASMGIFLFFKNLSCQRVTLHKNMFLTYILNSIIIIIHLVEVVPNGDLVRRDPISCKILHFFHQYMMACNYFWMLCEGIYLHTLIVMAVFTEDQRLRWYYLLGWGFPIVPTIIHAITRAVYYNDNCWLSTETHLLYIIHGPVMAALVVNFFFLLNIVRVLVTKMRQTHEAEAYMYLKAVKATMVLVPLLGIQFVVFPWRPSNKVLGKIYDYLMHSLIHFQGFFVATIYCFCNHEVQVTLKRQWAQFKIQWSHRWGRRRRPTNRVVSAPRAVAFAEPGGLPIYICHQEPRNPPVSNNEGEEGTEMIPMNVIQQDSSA
T1 sequence (looked up) 2: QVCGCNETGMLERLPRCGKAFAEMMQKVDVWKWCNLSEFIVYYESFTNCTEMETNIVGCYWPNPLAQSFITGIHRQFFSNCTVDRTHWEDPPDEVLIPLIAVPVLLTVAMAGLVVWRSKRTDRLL
Briefly: SPA competition vs 125I-rat amylin, membranes of BHK cells with rat calcitonin receptor + rat RAMP3 (Assay VI).

Test [2] concerns the target T2, human calcitonin receptor (human, UniProt P30988 25-474).
T2 construct: whole, on cells; Membranes prepared from a stably transfected BHK cell line (Assay VII); also called hCTR; hCT
T2 sequence (looked up): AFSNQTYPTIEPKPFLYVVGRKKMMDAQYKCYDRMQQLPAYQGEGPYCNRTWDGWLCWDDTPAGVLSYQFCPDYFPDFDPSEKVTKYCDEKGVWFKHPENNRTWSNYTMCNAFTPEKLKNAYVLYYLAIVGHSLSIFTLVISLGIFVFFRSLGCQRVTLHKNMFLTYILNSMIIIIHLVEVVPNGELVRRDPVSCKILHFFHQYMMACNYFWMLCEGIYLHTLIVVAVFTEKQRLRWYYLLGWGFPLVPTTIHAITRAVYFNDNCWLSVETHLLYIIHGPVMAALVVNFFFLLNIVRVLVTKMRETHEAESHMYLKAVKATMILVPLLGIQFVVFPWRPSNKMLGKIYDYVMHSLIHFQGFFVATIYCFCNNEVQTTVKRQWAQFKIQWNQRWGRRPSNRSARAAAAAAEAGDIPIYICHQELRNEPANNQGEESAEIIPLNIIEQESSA
Briefly: ratio of binding IC50s: human calcitonin receptor / human amylin receptor (reference). A digest of the protocol: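 Membranes (35 ng/μL final) + SPA beads, 50 mM Hepes pH 7.4 buffer with 1 mM CaCl2, 5 mM MgCl₂, 0.1% OA, 0.02% Tween20; 120 min, 25° C, shaking; centrifuged, counted; IC₅₀ by one-site binding competition.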

Test [3] concerns the target T3, rat calcitonin receptor (rat, UniProt P32214 25-516).
T3 construct: whole, on cells; Membranes prepared from transiently transfected BHK tk'ts 13 cells (Assay VIII); also called rCTR; rCT
T3 sequence (looked up): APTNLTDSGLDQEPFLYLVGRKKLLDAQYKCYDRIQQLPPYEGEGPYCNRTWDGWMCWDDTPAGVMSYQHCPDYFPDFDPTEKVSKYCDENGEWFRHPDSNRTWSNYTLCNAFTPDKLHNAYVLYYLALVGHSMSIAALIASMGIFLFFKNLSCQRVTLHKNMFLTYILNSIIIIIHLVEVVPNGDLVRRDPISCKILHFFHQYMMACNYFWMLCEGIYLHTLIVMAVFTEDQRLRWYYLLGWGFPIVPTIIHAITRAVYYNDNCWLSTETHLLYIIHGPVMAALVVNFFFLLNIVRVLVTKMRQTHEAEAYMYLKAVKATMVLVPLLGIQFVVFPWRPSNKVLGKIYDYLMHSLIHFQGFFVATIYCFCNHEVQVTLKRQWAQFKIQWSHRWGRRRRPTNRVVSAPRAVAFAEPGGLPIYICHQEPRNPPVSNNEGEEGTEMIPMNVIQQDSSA
Briefly: ratio of binding IC50s: rat calcitonin receptor / rat amylin receptor (reference).

For test [4], the target named is T3, rat calcitonin receptor. Briefly: SPA competition vs 125I-calcitonin, membranes of BHK cells with rat calcitonin receptor (Assay VIII).

B1: N^ε1-[2-[2-[2-[[(4S)-4-carboxy-4-(19-carboxynonadecanoylamino)butanoyl]amino]ethoxy]ethoxy]acetyl]-[Thr14,Arg17,Pro21,Pro27,Pro31]-h-amylin (peptide)
peptide: K([AEEA-γGlu-C20 diacid])CNTATCATQRLATFLRHSSPNFGAIPSSTPVGSNTY-NH2
modifications: disulfide 2-7; N-terminus assumed
SMILES: CC[C@H](C)[C@H](NC(=O)[C@H](C)NC(=O)CNC(=O)[C@H](Cc1ccccc1)NC(=O)[C@H](CC(N)=O)NC(=O)[C@@H]1CCCN1C(=O)[C@H](CO)NC(=O)[C@H](CO)NC(=O)[C@H](Cc1c[nH]cn1)NC(=O)[C@H](CCCNC(=N)N)NC(=O)[C@H](CC(C)C)NC(=O)[C@H](Cc1ccccc1)NC(=O)[C@@H](NC(=O)[C@H](C)NC(=O)[C@H](CC(C)C)NC(=O)[C@H](CCCNC(=N)N)NC(=O)[C@H](CCC(N)=O)NC(=O)[C@@H](NC(=O)[C@H](C)NC(=O)[C@@H]1CSSC[C@H](NC(=O)[C@@H](N)CCCCNC(=O)COCCOCCNC(=O)CC[C@H](NC(=O)CCCCCCCCCCCCCCCCCCC(=O)O)C(=O)O)C(=O)N[C@@H](CC(N)=O)C(=O)N[C@@H]([C@@H](C)O)C(=O)N[C@@H](C)C(=O)N[C@@H]([C@@H](C)O)C(=O)N1)[C@@H](C)O)[C@@H](C)O)C(=O)N1CCC[C@H]1C(=O)N[C@@H](CO)C(=O)N[C@@H](CO)C(=O)N[C@H](C(=O)N1CCC[C@H]1C(=O)N[C@H](C(=O)NCC(=O)N[C@@H](CO)C(=O)N[C@@H](CC(N)=O)C(=O)N[C@H](C(=O)N[C@@H](Cc1ccc(O)cc1)C(N)=O)[C@@H](C)O)C(C)C)[C@@H](C)O
notes: Analogue of human amylin; also called compound 75
In general, IC50 refers to the point on the concentration scale where inhibition reaches its midpoint. Consider B1, for which the IC50 in test [1] was found to be 4.03 nM; with rat calcitonin receptor [4] it was 442 nM. Besides, the “Ratio hCT/hAmylin binding” value in test [2] was found to be 91.4. Besides, in the test with rat calcitonin receptor [3], the “Ratio rCT/rAmylin binding” value worked out at 110.

B2: N^ε1-[(4S)-4-carboxy-4-(19-carboxynonadecanoylamino)butanoyl]-[Arg14,Arg17,Pro21,Pro27,Pro31]-h-amylin (peptide)
peptide: K([γGlu-C20 diacid])CNTATCATQRLARFLRHSSPNFGAIPSSTPVGSNTY-NH2
modifications: disulfide 2-7; N-terminus assumed
SMILES: CC[C@H](C)[C@H](NC(=O)[C@H](C)NC(=O)CNC(=O)[C@H](Cc1ccccc1)NC(=O)[C@H](CC(N)=O)NC(=O)[C@@H]1CCCN1C(=O)[C@H](CO)NC(=O)[C@H](CO)NC(=O)[C@H](Cc1c[nH]cn1)NC(=O)[C@H](CCCNC(=N)N)NC(=O)[C@H](CC(C)C)NC(=O)[C@H](Cc1ccccc1)NC(=O)[C@H](CCCNC(=N)N)NC(=O)[C@H](C)NC(=O)[C@H](CC(C)C)NC(=O)[C@H](CCCNC(=N)N)NC(=O)[C@H](CCC(N)=O)NC(=O)[C@@H](NC(=O)[C@H](C)NC(=O)[C@@H]1CSSC[C@H](NC(=O)[C@@H](N)CCCCNC(=O)CC[C@H](NC(=O)CCCCCCCCCCCCCCCCCCC(=O)O)C(=O)O)C(=O)N[C@@H](CC(N)=O)C(=O)N[C@@H]([C@@H](C)O)C(=O)N[C@@H](C)C(=O)N[C@@H]([C@@H](C)O)C(=O)N1)[C@@H](C)O)C(=O)N1CCC[C@H]1C(=O)N[C@@H](CO)C(=O)N[C@@H](CO)C(=O)N[C@H](C(=O)N1CCC[C@H]1C(=O)N[C@H](C(=O)NCC(=O)N[C@@H](CO)C(=O)N[C@@H](CC(N)=O)C(=O)N[C@H](C(=O)N[C@@H](Cc1ccc(O)cc1)C(N)=O)[C@@H](C)O)C(C)C)[C@@H](C)O
notes: Analogue of human amylin; also called compound 63
Take B2: the IC50 in test [1] came out at 3.48 nM; with rat calcitonin receptor [4], 124 nM. For the same molecule, in test [2], the “Ratio hCT/hAmylin binding” value was determined as 157. The “Ratio rCT/rAmylin binding” value with rat calcitonin receptor [3] was 35.6.

B3: N^ε1-[(4S)-4-carboxy-4-(19-carboxynonadecanoylamino)butanoyl]-[Arg14,Arg17,Pro21,Pro27,Pro34]-h-amylin (peptide)
peptide: K([γGlu-C20 diacid])CNTATCATQRLARFLRHSSPNFGAIPSSTNVGPNTY-NH2
modifications: disulfide 2-7; N-terminus assumed
SMILES: CC[C@H](C)[C@H](NC(=O)[C@H](C)NC(=O)CNC(=O)[C@H](Cc1ccccc1)NC(=O)[C@H](CC(N)=O)NC(=O)[C@@H]1CCCN1C(=O)[C@H](CO)NC(=O)[C@H](CO)NC(=O)[C@H](Cc1c[nH]cn1)NC(=O)[C@H](CCCNC(=N)N)NC(=O)[C@H](CC(C)C)NC(=O)[C@H](Cc1ccccc1)NC(=O)[C@H](CCCNC(=N)N)NC(=O)[C@H](C)NC(=O)[C@H](CC(C)C)NC(=O)[C@H](CCCNC(=N)N)NC(=O)[C@H](CCC(N)=O)NC(=O)[C@@H](NC(=O)[C@H](C)NC(=O)[C@@H]1CSSC[C@H](NC(=O)[C@@H](N)CCCCNC(=O)CC[C@H](NC(=O)CCCCCCCCCCCCCCCCCCC(=O)O)C(=O)O)C(=O)N[C@@H](CC(N)=O)C(=O)N[C@@H]([C@@H](C)O)C(=O)N[C@@H](C)C(=O)N[C@@H]([C@@H](C)O)C(=O)N1)[C@@H](C)O)C(=O)N1CCC[C@H]1C(=O)N[C@@H](CO)C(=O)N[C@@H](CO)C(=O)N[C@H](C(=O)N[C@@H](CC(N)=O)C(=O)N[C@H](C(=O)NCC(=O)N1CCC[C@H]1C(=O)N[C@@H](CC(N)=O)C(=O)N[C@H](C(=O)N[C@@H](Cc1ccc(O)cc1)C(N)=O)[C@@H](C)O)C(C)C)[C@@H](C)O
notes: Analogue of human amylin; also called compound 65
B3: the concentration for half-maximal inhibition (IC50) was 1.16 nM in test [1] and 108 nM in the test with rat calcitonin receptor [4]. In addition, the “Ratio hCT/hAmylin binding” value in test [2] amounted to 82.4. Besides, the “Ratio rCT/rAmylin binding” value with rat calcitonin receptor [3] worked out at 93.2.

B4: N^ε1-[(4S)-4-carboxy-4-(19-carboxynonadecanoylamino)butanoyl]-[Ala14,Arg17,Pro21,Pro27,His34]-h-amylin (peptide)
peptide: K([γGlu-C20 diacid])CNTATCATQRLAAFLRHSSPNFGAIPSSTNVGHNTY-NH2
modifications: disulfide 2-7; N-terminus assumed
SMILES: CC[C@H](C)[C@H](NC(=O)[C@H](C)NC(=O)CNC(=O)[C@H](Cc1ccccc1)NC(=O)[C@H](CC(N)=O)NC(=O)[C@@H]1CCCN1C(=O)[C@H](CO)NC(=O)[C@H](CO)NC(=O)[C@H](Cc1c[nH]cn1)NC(=O)[C@H](CCCNC(=N)N)NC(=O)[C@H](CC(C)C)NC(=O)[C@H](Cc1ccccc1)NC(=O)[C@H](C)NC(=O)[C@H](C)NC(=O)[C@H](CC(C)C)NC(=O)[C@H](CCCNC(=N)N)NC(=O)[C@H](CCC(N)=O)NC(=O)[C@@H](NC(=O)[C@H](C)NC(=O)[C@@H]1CSSC[C@H](NC(=O)[C@@H](N)CCCCNC(=O)CC[C@H](NC(=O)CCCCCCCCCCCCCCCCCCC(=O)O)C(=O)O)C(=O)N[C@@H](CC(N)=O)C(=O)N[C@@H]([C@@H](C)O)C(=O)N[C@@H](C)C(=O)N[C@@H]([C@@H](C)O)C(=O)N1)[C@@H](C)O)C(=O)N1CCC[C@H]1C(=O)N[C@@H](CO)C(=O)N[C@@H](CO)C(=O)N[C@H](C(=O)N[C@@H](CC(N)=O)C(=O)N[C@H](C(=O)NCC(=O)N[C@@H](Cc1c[nH]cn1)C(=O)N[C@@H](CC(N)=O)C(=O)N[C@H](C(=O)N[C@@H](Cc1ccc(O)cc1)C(N)=O)[C@@H](C)O)C(C)C)[C@@H](C)O
notes: Analogue of human amylin; also called compound 93
Regarding B4, the IC50 in test [1] stood at 1.58 nM; with rat calcitonin receptor [4], 131 nM. The “Ratio hCT/hAmylin binding” value in test [2] was determined as 101. In the test with rat calcitonin receptor [3], the “Ratio rCT/rAmylin binding” value stood at 83.2.
